Measured values: article PMC12032302 (2025)

Target: HA-NEK7 (mouse NIMA-related kinase 7, wild type) (mouse, UniProt Q9ES74 1-302)
Experiment: BLI

Sequence of HA-NEK7 (mouse NIMA-related kinase 7, wild type) (Q9ES74 whole entry): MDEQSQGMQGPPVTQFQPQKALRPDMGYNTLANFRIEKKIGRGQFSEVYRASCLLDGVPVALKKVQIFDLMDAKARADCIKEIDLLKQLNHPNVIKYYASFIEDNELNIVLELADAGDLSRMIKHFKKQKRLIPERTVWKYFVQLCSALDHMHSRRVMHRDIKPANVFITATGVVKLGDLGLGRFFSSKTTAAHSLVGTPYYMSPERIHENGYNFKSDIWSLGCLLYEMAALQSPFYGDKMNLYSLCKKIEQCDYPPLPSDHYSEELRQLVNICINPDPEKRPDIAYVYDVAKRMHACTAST

Kd: 197 µM
Binder: KLVALKTNGDGNCLMHAACQYMWGVQDTD [A20-derived peptide P-II]
